Data: the supplement of paper PMC9170038

Experiments:
[1] = tested on: MS2 coat protein; assay: apparent KD of MS2 coat protein, switch ON state; designed switch direction (-1 OFF switch, 1 ON switch): -1; higher = weaker reporter binding; conditions: FMN input: 0 or 200 uM; Eterna round: R93 (includes R88 designs)
In short: (§1)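 Illumina sequencing clusters were used for on-chip transcription of designed RNA switches. Titration with SNAP-549-labelled MS2 coat protein followed, in twofold steps from 0.7 or 1.5 nM to 3 µM in 100 mM Tris-HCl pH 7.5, 80 mM KCl, 4 mM MgCl2, without or with constant ligand. Apparent KD is each design's median of fits to normalised cluster binding curves.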

[2] = tested on: MS2 coat protein; assay: apparent KD of MS2 coat protein, switch OFF state (with FMN for OFF switches, without FMN for ON switches); designed switch direction (-1 OFF switch, 1 ON switch): -1; higher = weaker reporter binding; conditions: FMN input: 0 or 200 uM; Eterna round: R93 (includes R88 designs)
In short: as §1

Row | Sequence | apparent KD of MS2 coat protein [1] | apparent KD of MS2 coat protein [2]
1 | GGGCCACAUGAGGAUCACCCAUGUAAGGAUAUGCUAGGGAUGGAAACCAUUACGCAAAGCAGAAGGUACUAAAG [Janelle Amethyst 18 Mod 10 - Jieux - Exclusion 1] | 26.6 nM | 28.2 nM
2 | AAACCACAUGAGGAUCACCCAUGUCAGGAUAUGCAAACAACAAACAACAAACAACAAAGCAGAAGGGACAACAA [63%, Olong, 2] | 13.8 nM | 18 nM
3 | AAAAAACAUGAGGAUCACCCAUGUGAGGAUAUCGAUAUUAAAGACACCCACUUAAUGGCGAGAAGGCGCAAAAA [Brourd 613 Mod 20 - Jieux - Exclusion 1] | 25.4 nM | 26.5 nM
4 | AAAAAUCGAGGAUAUACAUGAGGAUCACCCAUGUUGGAAAACGAUUACACAAAAGAAAGUAGAAGGCGAUAAAA [Ex 3 May 21] | 16.5 nM | 24.7 nM
5 | AAAAGCAAAGGAUAUACAUGAGGAUCACCCAUGUAAAAAAGAAAAGAGUAUAUGGCAUGUAGAAGGUUGCGUGG [Rabisoxe] | 26.2 nM | 54.9 nM
6 | AAUGUACGAGGAUAUACAUAGAUACAGAUACAUGUAGACGUACAUGAGGAUCACCCAUGUAGAAGGCGUAUAUA [Mat - Same state - Mayanna Mod - D113] | 82.8 nM | 172 nM
7 | AAAAAGUGAGGAUAUGGAAAAAAAAAAAAAAAAAAAAAAAACCAGAAGGCACAUGAGGAUCACCCAUGUAAAAA [exclusive 2] | 38.6 nM | 30.9 nM
8 | AACUGACAUGAGGAUCACCCAUGUCAGGAUAUGACAUCGAAAAAUAAAUAAAUCGUUGUCAGAAGGGACAUGGA [Design 74: Sub-opt RB] | 25.1 nM | 38 nM
9 | GGUUGGCGAGGAUAUACAUGAGGAUCACCCAUGUGAGAGAAAAAAGUGAGAAAGAACAGUAGAAGGCGCUGACG [salish99-ex3-29] | 23.4 nM | 72.8 nM
10 | AAAAAACAUGAGGAUCACCCAUGUGAGGAUAUCUGUAUUCAAUCCUCGGAUUGAAUACAGAGAAGGCACAUGGG [Ex1: 609] | 13.9 nM | 14.2 nM
11 | UACGUAUGAGGAUAUACAAACAGAAAAAUCAGACAUAACAGACAUGAGGAUCACCCAUGUAGAAGGCAUAUACA [JR_Exc002_Sub903] | 20.1 nM | 15.3 nM
12 | ACAGUUACAGGAUAUACAUGAAUAACUUCAAAGAAAACUCUACAUGAGGAUCACCCAUGUAGAAGGGUAACUGA [Ex2 Design 200 (fingers crossed): Random 18] | 14.3 nM | 18.8 nM
13 | CUCUUGUCAGGAUAUCAAAGAAAAGAAGAGAAAGAAAAGAAUGAGAAGGGACAUGAGGAUCACCCAUGUAAGAA [EteRNA is fun!] | 48.1 nM | 51.7 nM
14 | AGAAAGGCAGGAUAUACAUGAGGAUCACCCAUGUUAAGAAAGUGCGAAAGCACAAGAAGUAGAAGGGCCAAGAA [Rupert goes to college] | 23.2 nM | 19.2 nM
15 | GACGAGUGAGGAUAUGUAAAAAAAAGAGAAGAGAAGAGAGAACAGAAGGCACAUGAGGAUCACCCAUGUAGGGA [Default title] | 114 nM | 71 nM
16 | CUCAUGUCAGGAUAUGUCAAAAGUCACAAAAGUGACAAAAGACAGAAGGGACAUGAGGAUCACCCAUGUAAAAA [Starry Exclusion 4.6 (starryjess round 1 mod)] | 20.6 nM | 15.5 nM
17 | AAAAAACAUGAGGAUCACCCAUGUGAGGAUAUGUAUAUCCCUAAAAAAGUGUGGGACUACAGAAGGCACUUGGA [Atanri] | 43.3 nM | 122 nM
18 | AAAAGACAUGAGGAUCACCCAUGUGAGGAUAUCGGAAAAGGAAAAAAAAAAAAGAAGACGAGAAGGCACACCAA | 42.5 nM | 33.8 nM
19 | AAAAAACAUGAGGAUCACCCAUGUGAGGAUAUGCAAAAGAAAAGAAAAGAAAGAAGAAGCAGAAGGUACAAGAA [Shepseskare Isi] | 22.6 nM | 27.7 nM
20 | AAAAAACAUGAGGAUCACCCAUGUGAGGAUAUCGCUAGUGAGGCCAUAGUGUCAGUGAUGAGAAGGCACAUAAA [Brourd 613 Mod 9 - Jieux - Exclusion 1] | 37.7 nM | 30.8 nM
21 | AAGAACAAAGGAUAUACAAGGAAGAAAGAAAAGAAAAGAAAACAUGAGGAUCACCCAUGUAGAAGGUUGUAGAA [EteRNA is fun!] | 24.7 nM | 20.7 nM
22 | UAUAGACAUGAGGAUCACCCAUGUGAGGAUAUCGGUAACUACAAAACAUCACAUACAACGAGAAGGCACAGAAA [JR_Exc001_Sub013] | 41.5 nM | 35.1 nM
23 | GAAAACCUAGGAUAUACAUGAGGAUCACCCAUGUCAGUAGACUGGGAAAGGUCUCUCAGUAGAAGGAGGACCCG [Zaered] | 509 nM | 437 nM

Row | Sequence | apparent KD of MS2 coat protein [1] | apparent KD of MS2 coat protein [2]
24 | AGAACGUCAGGAUAUGCAACAACAAGUAAAUAGAGAAGAAGGCAGAAGGGACAUGAGGAUCACCCAUGUAAGAA [e4] | 44.1 nM | 29.9 nM
25 | AGCAAGAGAGGAUAUACAUAAAAAAAAAAAGUCUGAUCCCUACAUGAGGAUCACCCAUGUAGAAGGCUCUGGCA [Ex2 Design 156: Sub-opt 20] | 28.8 nM | 26.2 nM
26 | AAGAAGUCAGGAUAUCGAAAAGAAAAGAAAAGAAAAGAAAACGAGAAGGGACAUGAGGAUCACCCAUGUAAGAA [Smerdis] | 46.5 nM | 25.7 nM
27 | AGGAAACAUGAGGAUCACCCAUGUAAGGAUAUGAACGAAAAUAAAUAAAAAUAAAAGUUCAGAAGGUACGAAAA [66%, Wbt, 7] | 30.7 nM | 55.1 nM
28 | AGCUAGUCAGGAUAUACAAACAUGUCAAAAGACGUGAAAAGACAUGAGGAUCACCCAUGUAGAAGGGACUAGCA [Mat - Exclusion 2 - JL mod - D14] | 29.8 nM | 90.5 nM
29 | CCUCGACAUGAGGAUCACCCAUGUUAGGAUAUAUACAAACCCGAAAACCAAGGGCAAAAUAGAAGGAACGUGCA [Masoedma] | 14.8 nM | 19.2 nM
30 | AAGAAACGAGGAUAUACAUGAGGAUCACCCAUGUAAAAGAAAGAAAAGGGAAAGAAAAGUAGAAGGCGUAAGAA [Usermaatre-sekheperenre Ramesses V] | 30.4 nM | 37 nM
31 | AAAAAGUCAGGAUAUCGGAAAAUAAAAAUAAAAAAAAAAAACGAGAAGGGACAUGAGGAUCACCCAUGUAUGAC [Mat - Exclusion 4 - Mayanna - D113] | 45.2 nM | 39 nM
32 | AGGGAGUGAGGAUAUGCGAAAGAAAAAGAAGGAAAAAAAAAGCAGAAGGUACAUGAGGAUCACCCAUGUAAAAA [milkweed 7] | 26.5 nM | 16.9 nM
33 | GAAAAGUGAGGAUAUACAUGAGGAUCACCCAUGUGUAUAAAAAAUUACACAAAAGAAAGUAGAAGGCACUAAAA [Mat - Exclusion 3 - Mayanna mod - D114] | 17.8 nM | 28.1 nM
34 | AGAAUACAUGAGGAUCACCCAUGUGAGGAUAUGCAAAUAAAAAUAAAAUAAAAUAAUUGCAGAAGGCACGAAAG [EX 1 May 23] | 44.4 nM | 91.2 nM
35 | AAGAACACAGGAUAUACAUGAGGAUCACCCAUGUAAAAGAAAGAAGGGAAAGAGAAAAGUAGAAGGGUGAAGAA [Ker] | 33.1 nM | 36.6 nM
36 | AGCUAGUCAGGAUAUACAAAAUGAUUGCAAAAGCAAUCAACACAUGAGGAUCACCCAUGUAGAAGGGACUAGCA [Mat - Exclusion 2 - JL-Eli mod - D44] | 19 nM | 19.4 nM
37 | AAAAAACAUGAGGAUCACCCAUGUGAGGAUAUACUAAACAAAAAAAACAAAAACAAAUGUAGAAGGCACAAAAA [Amethyst 36] | 19 nM | 23 nM
38 | AAAUGCUGAGGAUAUACAUGAGGAUCACCCAUGUAAAAUAAAUAAAGGGUGUAAACGUGUAGAAGGCAGCAUAA [Exclusion 3.14e (FMN+ favored )] | 39.4 nM | 32.6 nM
39 | AAAAAGUGAGGAUAUGGAAAAAAAAAAAAAAAAAAAAAAAACCAGAAGGCACAUGAGGAUCACCCAUGUAAAAA [low kcal] | 38.6 nM | 30.9 nM
40 | AACAAACAUGAGGAUCACCCAUGUGAGGAUAUCGGAUGUACAGCGCAAUUAGAAUUAACGAGAAGGCACACUUA [Ex1_Neo] | 22.7 nM | 22.6 nM
41 | AAAACACAUGAGGAUCACCCAUGUUAGGAUAUCCACGCUACUAAUCCUAAACAAAGCGGGAGAAGGAACGUGGC [Xerereonan] | 20.9 nM | 17.5 nM
42 | UAUAACCAAGGAUAUACUAACGAAACUAAUGCAUAUAUAUAACAUGAGGAUCACCCAUGUAGAAGGUGGAGAAU [JR_Exc002_Sub012] | 60.5 nM | 50.2 nM
43 | CAGGUAUGAGGAUAUACAUAGAUACAGACACAUGUUCAAGUACAUGAGGAUCACCCAUGUAGAAGGCAUAUAUG [Mat - Same state - Mayanna Mod - D106] | 22.3 nM | 35.1 nM
44 | AGAACGUCAGGAUAUCGAACAACAAGUAAAUAGAGAAGAAGCGAGAAGGGACAUGAGGAUCACCCAUGUAAGAA [e4-3] | 62.5 nM | 48.9 nM
45 | AGUUGGCGAGGAUAUACAUGAGGAUCACCCAUGUGGAAGAAAAAAGUGAGAAAGAAAAGUAGAAGGCGCUGACA [Mat - Exclusion 3 - Lego mod - D87] | 67.5 nM | 316 nM
